Columns and labels:
[1] = target: IgA of the IgM/IgA-enriched immunoglobulin Pentaglobin; assay: non-reducing SDS-PAGE with Western blot; Pentaglobin separated by non-reducing SDS-PAGE, transferred to nitrocellulose; J-chain, IgA and IgM detected with specific antibodies and fluorophore labeled secondary antibodies
[2] = target: IgM of the IgM/IgA-enriched immunoglobulin Pentaglobin; assay: as above

Chain of IgM of the IgM/IgA-enriched immunoglobulin Pentaglobin (P01871 whole entry): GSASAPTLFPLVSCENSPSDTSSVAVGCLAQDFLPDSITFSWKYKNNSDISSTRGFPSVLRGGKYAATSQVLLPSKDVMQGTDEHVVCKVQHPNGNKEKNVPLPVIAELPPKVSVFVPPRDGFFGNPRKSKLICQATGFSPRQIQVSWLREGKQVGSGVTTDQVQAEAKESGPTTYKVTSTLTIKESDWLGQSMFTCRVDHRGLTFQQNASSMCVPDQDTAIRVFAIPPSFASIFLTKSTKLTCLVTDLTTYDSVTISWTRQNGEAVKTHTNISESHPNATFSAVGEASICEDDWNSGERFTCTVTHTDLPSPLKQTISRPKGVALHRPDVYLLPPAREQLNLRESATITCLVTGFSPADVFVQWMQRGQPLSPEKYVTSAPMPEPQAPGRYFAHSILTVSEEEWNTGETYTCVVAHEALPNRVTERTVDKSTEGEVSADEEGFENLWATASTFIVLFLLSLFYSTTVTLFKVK
Chain of IgA of the IgM/IgA-enriched immunoglobulin Pentaglobin (P01876 whole entry): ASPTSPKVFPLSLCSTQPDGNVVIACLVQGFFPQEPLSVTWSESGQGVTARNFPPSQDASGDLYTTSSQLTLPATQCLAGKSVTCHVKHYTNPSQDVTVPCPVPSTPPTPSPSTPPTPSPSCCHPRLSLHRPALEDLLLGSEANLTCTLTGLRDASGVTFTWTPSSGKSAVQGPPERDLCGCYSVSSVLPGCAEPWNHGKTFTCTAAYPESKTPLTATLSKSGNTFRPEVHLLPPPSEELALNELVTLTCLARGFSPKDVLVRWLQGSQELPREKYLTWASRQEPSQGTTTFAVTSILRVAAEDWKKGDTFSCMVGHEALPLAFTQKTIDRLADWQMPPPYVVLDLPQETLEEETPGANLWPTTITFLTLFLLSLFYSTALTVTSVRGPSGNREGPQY

stoichiometry N [1] | stoichiometry N [2] | Substance
2 |  | IgA of the IgM/IgA-enriched immunoglobulin Pentaglobin (natural protein)
 | 5 | IgM of the IgM/IgA-enriched immunoglobulin Pentaglobin (natural protein)

From paper PMC8948467
